This is an account of results in article PMC8092277, “Cytoplasmic CPSF6 Regulates HIV-1 Capsid Trafficking and Infection in a Cyclophilin A-Dependent Manner” (mBio, 2021).

The series deals with the molecule itself. The series is described as follows: negative-stain TEM; MBP-CPSF6 P1 or P2 alone, incubated in CA assembly buffer.

B1: MBP-His6-CPSF6-588 (natural protein, UniProt Q16630-2 1-588, looked up)
chain: MADGVDHIDIYADVGEEFNQEAEYGGHDQIDLYDDVISPSANNGDAPEDRDYMDTLPPTVGDDVGKGAAPNVVYTYTGKRIALYIGNLTWWTTDEDLTEAVHSLGVNDILEIKFFENRANGQSKGFALVGVGSEASSKKLMDLLPKRELHGQNPVVTPCNKQFLSQFEMQSRKTTQSGQMSGEGKAGPPGGSSRAAFPQGGRGRGRFPGAVPGGDRFPGPAGPGGPPPPFPGNLIKHLVKGTRPLFLETRIPWHMGHSIEEIPIFGLKAGQTPPRPPLGPPGPPGPPGPPPPGQVLPPPLAGPPNRGDRPPPPVLFPGQPFGQPPLGPLPPGPPPPVPGYGPPPGPPPPQQGPPPPPGPFPPRPPGPLGPPLTLAPPPHLPGPPPGAPPPAPHVNPAFFPPPTNSGMPTSDSRGPPPTDPYGRPPPYDRGDYGPPGREMDTARTPLSEAEFEEIMNRNRAISSSAISRAVSDASAGDYGSAIETLVTAISLIKQSKVSADDRCKVLISSLQDCLHGIESKSYGSGSRRERSRERDHSRSREKSRRHKSRSRDRHDDYYRERSRERERHRDRDRDRDRERDREREYRHR
notes: cleavage and polyadenylation specificity factor 6 (CPSF6), the isoform of 588 residues, full length; Order: MBP, His6, CPSF6; An HRV-3C site allows removal of MBP, but the cleaved protein precipitated, so the tagged protein was used; Size exclusion gave two peaks of the same construct, P1 and P2, which are kept here as one molecule; also called MBP-CPSF6; full-length CPSF6; source: Expi 293F …
Consider B1, for which the binding result is “binds”.
